In the experiment the target is putative EMR2 ligand. As to the kind of experiment: flow cytometry on human monocyte-derived macrophages; abolished by EGTA. For orientation: In flow cytometry, cells or beads pass a laser one at a time.

Substance “biotinylated soluble EMR2(EGF-1,2,3,4,5) protein-fluorescent bead complex (from UniProt Q9UHX3 24-260) (receptor)” returned a percent of cells bound of 45 to 50%.
